Reference: US20230263906A1, “HIGH AFFINITY IL-2 RECEPTOR AGONISTS AND SYNTHETIC NANOCARRIER DOSE SPARING” (Selecta Biosciences, Inc., priority 2022, published 2023)

System: Ovalbumin-specific OTII T cells
Assay: Example 5: adoptive transfer of ovalbumin-specific OTII T cells, Foxp3 expression
Type: in vivo, mice
Conditions: OTII T cells adoptively transferred prior to treatment
Experimental: However, expansion of antigen-specific Treg can be more desirable than expansion of total Treg. The ability of ImmTOR plus antigen combined with IL-2 mutein to induce and/or expand antigen-specific Treg was evaluated. Ovalbumin-specific OTII T cells were adoptively transferred into mice prior to treatment with ovalbumin and ImmTOR and/or IL-2 mutein.

B1: ovalbumin (protein, UniProt P01012 2-386, looked up)
Ovalbumin: GSIGAASMEFCFDVFKELKVHHANENIFYCPIAIMSALAMVYLGAKDSTRTQINKVVRFDKLPGFGDSIEAQCGTSVNVHSSLRDILNQITKPNDVYSFSLASRLYAEERYPILPEYLQCVKELYRGGLEPINFQTAADQARELINSWVESQTNGIIRNVLQPSSVDSQTAMVLVNAIVFKGLWEKAFKDEDTQAMPFRVTEQESKPVQMMYQIGLFRVASMASEKMKILELPFASGTMSMLVLLPDEVSGLEQLESIINFEKLTEWTSSNVMEERKIKVYLPRMKMEEKYNLTSVLMAMGITDVFSSSANLSGISSAESLKISQAVHAAHAEINEAGREVVGSAEAGVDAASVSEEFRADHPFLFCIKHIATNAVLFFGRCVSP
notes: model antigen
percentage of Foxp3+OTII cells: ~6%
